The test system of the data set is Bxb1 integrase (serine recombinase) (Mycobacterium phage Bxb1?). Briefly: cell_activity.

On to “Bxb1 attB site on circularised mNeonGreen cargo”, for which the activity (% mNeonGreen-positive cells) (attB on cargo recombined with genomic attP in hiPSCs, 0.01% without cargo and Bxb1 plasmids) is 11.3.

Turning to “Bxb1 attP site (58 nt, integrated at ACTR10 via ssODN)”, for the setting “attP x attB recombination in hiPSCs, all components delivered with Cas9 RNP, 0.38% without attP ssODN template”, the activity (% mNeonGreen-positive cells) turned out to be 11.3.

(Values after patent US20250002943.)
